The target in data set [1] is Peptide-2.
For data set [2], the target named is T1, Peptide-5 (not fully specified).
T1 chain: CDRVYIHPFHLK

The target in data set [3] is Peptide-1.
Data set [4] addresses T2, Peptide-6a.
T2 chain: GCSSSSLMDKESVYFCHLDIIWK

Data set [5] addresses Peptide-4.
The target of data set [6] is Peptide-7.

B1: D1 (protein)
chain: YPYDVPDYAYPYDVPDYAYPYDVPDYAGSYDDGICKSSDCIKSAARLIQNMDATTEPCTDFFKYACGGWLKRNVIPETSSRYGNFDILRDELEVVLKDVLQEPKTEDIVAVQKAKALYRSCINESAIDSRGGEPLLKLLPDIYGWPVATENWEQKYGASWTAEKAIAQLNSKYGKKVLINLFVGTDDKNSVNHVIHIDQPRLGLPSRDYYECTGIYKEACTAYVDFMISVARLIRQEERLPIDENQLALEMNKVMELEKEIANATSKPEDRNDPMLLYNKMTLAQIQNNFSLEINGKPFSWLNFTNEIMSTVNISITNEEDVVVYAPEYLTKLKPILTKYSARDLQNLMSWRFIMDLVSSLSRTYKESRNAFRKALYVTTSETATWRRCANYVNGNMMNAVGRLYVEAAFAGESKHVVEDLIAQIREVFIQTLDDLTWMDAETKKRAEEKALAIKERIGYPDDIVSNDNKLNNEYLELNYKEDEYFENIIQNLKFSQSKQLKKLREKVDKDEWISGAAVVNAFYSSGRNQIVFPAGILQPPFFSAQQSNSLNYGGIGMVIGHEITHGFFDNGRNPNKDDDLVDWWTQQSASNFKEQSQCMVYQYGNFSWDLAGGQHLNGINTLGENIADNGGLGQAYRAYQNYIKKNGEEKLLPGLDLNHKQLFFLNFAQVWCGTYRPEYAVNSIKTDVHSPKNFRIIGTLQNSAEFSEAFHCRKNSYMNPEKKCRVW
On to B1, for which the activity relative to G399V/G714K (B1) is 1.24 fold in data set [1]; 0.08 fold in data set [2]; 1.11 fold in data set [3]; 0.12 fold in data set [4]; 0.95 fold in data set [5]; 0.61 fold in data set [6].

B2: D5 (protein)
chain: YPYDVPDYAYPYDVPDYAYPYDVPDYAGSYDDGICKSSDCIKSAARLIQNMDATTEPCTDFFKYACGGWLKRNVIPETSSRYGNFDILRDELEVVLKDVLQEPKTEDIVAVQKAKALYRSCINESAIDSRGGEPLLKLLPDIYGWPVATENWEQKYGASWTAEKAIAQLNSKYGKKVLINLFVGTDDKNSVNHVIHIDQPRLGLPSRDYYECTGIYKEACTAYVDFMISVARLIRQEERLPIDENQLALEMNKVMELEKEIANATSKPEDRNDPMLLYNKMTLAQIQNNFSLEINGKPFSWLNFTNEIMSTVNISITNEEDVVVYAPEYLTKLKPILTKYSARDLQNLMSWRFIMGLVSSLSRTYKESRNAFRKALYVTTSETATWRRCANYVNGNMMNAVGRLYVEAAFAGESKHVVEDLIAQIREVFIQTLDDLTWMDAETKKRAEEKALAIKERIGYPDDIVSNDNKLNNEYLELNYKEDEYFENIIQNLKFSQSKQLKKLREKVDKDEWISGAAVVNAFYSSGRNQIVFPAGILQPPFFSAQQSNSLNYGGIGMVIGHEITHGFFDNGRNPNKDDDLVDWWTQQSASNFKEQSQCMVYQYGNFSWDLAGGQHLNGINTLQENIADNGGLGQAYRAYQNYIKKNGEEKLLPGLDLNHKQLFFLNFAQVWCGTYRPEYAVNSIKTDVHSPKNFRIIGTLQNSAEFSEAFHCRKNSYMNPEKKCRVW
Consider B2, for which the activity relative to G399V/G714K (B1) worked out at 3.37 fold in data set [1]; 0.08 fold in data set [2]; 2.94 fold in data set [3]; 0.35 fold in data set [4]; 0.9 fold in data set [5]; 0.9 fold in data set [6].

B3: D4 (protein)
chain: YPYDVPDYAYPYDVPDYAYPYDVPDYAGSYDDGICKSSDCIKSAARLIQNMDATTEPCTDFFKYACGGWLKRNVIPETSSRYGNFDILRDELEVVLKDVLQEPKTEDIVAVQKAKALYRSCINESAIDSRGGEPLLKLLPDIYGWPVATENWEQKYGASWTAEKAIAQLNSKYGKKVLINLFVGTDDKNSVNHVIHIDQPRLGLPSRDYYECTGIYKEACTAYVDFMISVARLIRQEERLPIDENQLALEMNKVMELEKEIANATSKPEDRNDPMLLYNKMTLAQIQNNFSLEINGKPFSWLNFTNEIMSTVNISITNEEDVVVYAPEYLTKLKPILTKYSARDLQNLMSWRFIMGLVSSLSRTYKESRNAFRKALYVTTSETATWRRCANYVNGNMMNAVGRLYVEAAFAGESKHVVEDLIAQIREVFIQTLDDLTWMDAETKKRAEEKALAIKERIGYPDDIVSNDNKLNNEYLELNYKEDEYFENIIQNLKFSQSKQLKKLREKVDKDEWISGAAVVNAFYSSGRNQIVFPAGILQPPFFSAQQSNSLNYGGIGMVIGHEITHGFFDNGRNPNKDDDLVDWWTQQSASNFKEQSQCMVYQYGNFSWDLAGGQHLNGINTLGENIADNGGLGQAYRAYQNYIKKNGEEKLLPGLDLNHKQLFFLNFAQVWCGTYRPEYAVNSIKTDVHSPKNFRIIGTLQNSAEFSEAFHCRKNSYMNPEKKCRVW
With B3, the activity relative to G399V/G714K (B1) in data set [1] was found to be 2.71 fold; in data set [2] it was 0.08 fold; in data set [3], 2.43 fold; in data set [4] it was 0.28 fold; in data set [5] it was 0.91 fold; in data set [6], 0.51 fold.

B4: D2 (protein)
chain: YPYDVPDYAYPYDVPDYAYPYDVPDYAGSYDDGICKSSDCIKSAARLIQNMDATTEPCTDFFKYACGGWLKRNVIPETSSRYGNFDILRDELEVVLKDVLQEPKTEDIVAVQKAKALYRSCINESAIDSRGGEPLLKLLPDIYGWPVATENWEQKYGASWTAEKAIAQLNSKYGKKVLINLFVGTDDKNSVNHVIHIDQPRLGLPSRDYYECTGIYKEACTAYVDFMISVARLIRQEERLPIDENQLALEMNKVMELEKEIANATAKPEDRNDPMLLYNKMTLAQIQNNFSLEINGKPFSWLNFTNEIMSTVNISITNEEDVVVYAPEYLTKLKPILTKYSARDLQNLMSWRFIMGLVSSLSRTYKESRNAFRKALYVTTSETATWRRCANYVNGNMMNAVGRLYVEAAFAGESKHVVEDLIAQIREVFIQTLDDLTWMDAETKKRAEEKALAIKERIGYPDDIVSNDNKLNNEYLELNYKEDEYFENIIQNLKFSQSKQLKKLREKVDKDEWISGAAVVNAFYSSGRNQIVFPAGILQPPFFSAQQSNSLNYGGIGMVIGHEITHGFFDNGRNPNKDDDLVDWWTQQSASNFKEQSQCMVYQYGNFSWDLAGGQHLNGINTLGENIADNGGLGQAYRAYQNYIKKNGEEKLLPGLDLNHKQLFFLNFAQVWCGTYRPEYAVNSIKTDVHSPKNFRIIGTLQNSAEFSEAFHCRKNSYMNPEKKCRVW
With B4, the activity relative to G399V/G714K (B1) in data set [1] is 1.06 fold; in data set [2], 0.08 fold; in data set [3] it was 0.83 fold; in data set [4] it was 0.08 fold; in data set [5], 0.9 fold; in data set [6] it was 0.4 fold.

B5: D3 (protein)
chain: YPYDVPDYAYPYDVPDYAYPYDVPDYAGSYDDGICKSSDCIKSAARLIQNMDATTEPCTDFFKYACGGWLKRNVIPETSSRYGNFDILRDELEVVLKDVLQEPKTEDIVAVQKAKALYRSCINESAIDSRGGEPLLKLLPDIYGWPVATENWEQKYGASWTAEKAIAQLNSKYGKKVLINLFVGTDDKNSVNHVIHIDQPRLGLPSRDYYECTGIYKEACTAYVDFMISVARLIRQEERLPIDENQLALEMNKVMELEKEIANATAKPEDRNDPMLLYNKMTLAQIQNNFSLEINGKPFSWLNFTNEIMSTVNISITNEEDVVVYAPEYLTKLKPILTKYSARDLQNLMSWRFIMDLVSSLSRTYKESRNAFRKALYVTTSETATWRRCANYVNGNMMNAVGRLYVEAAFAGESKHVVEDLIAQIREVFIQTLDDLTWMDAETKKRAEEKALAIKERIGYPDDIVSNDNKLNNEYLELNYKEDEYFENIIQNLKFSQSKQLKKLREKVDKDEWISGAAVVNAFYSSGRNQIVFPAGILQPPFFSAQQSNSLNYGGIGMVIGHEITHGFFDNGRNPNKDDDLVDWWTQQSASNFKEQSQCMVYQYGNFSWDLAGGQHLNGINTLQENIADNGGLGQAYRAYQNYIKKNGEEKLLPGLDLNHKQLFFLNFAQVWCGTYRPEYAVNSIKTDVHSPKNFRIIGTLQNSAEFSEAFHCRKNSYMNPEKKCRVW
With B5, the activity relative to G399V/G714K (B1) in data set [1] was found to be 3.42 fold; in data set [2], 0.1 fold; in data set [3], 3.11 fold; in data set [4], 0.47 fold; in data set [5] it was 1.04 fold; in data set [6] it was 0.95 fold.

B6: D6 (protein)
chain: YPYDVPDYAYPYDVPDYAYPYDVPDYAGSYDDGICKSSDCIKSAARLIQNMDATTEPCTDFFKYACGGWLKRNVIPETSSRYGNFDILRDELEVVLKDVLQEPKTEDIVAVQKAKALYRSCINESAIDSRGGEPLLKLLPDIYGWPVATENWEQKYGASWTAEKAIAQLNSKYGKKVLINLFVGTDDKNSVNHVIHIDQPRLGLPRRDYYECTGIYKEACTAYVDLMISVARLIRQEERLPIDENQLALEMNKVMELEKEIANATSKPEDRNDPMLLYNKMTLAQIQNNFSLEINGKPFSWLNFTNEIMSTVNISITNEEDVVVYAPEYLTKLKPILTKYSARDLQNLMSWRFIMDLVSSLSRTYKESRNAFRKALYVTTSETATWRRCANYVNGNMMNAVGRLYVEAAFAGESKHVVEDLIAQIREVFIQTLDDLTWMDAETKKRAEEKALAIKERIGYPDDIVSNDNKLNNEYLELNYKEDEYFENIIQNLKFSQSKQLKKLREKVDKDEWISGAAVVNAFYSSGRNQIVFPAGILQPPFFSAQQSNSLNYGGIGMVIGHEITHGFMDNVRNPNKDDDLVDWWTQQSASNFKEQSQCMVYQYGNFSWDLAGGQHLNGINTLGENIADNGGLGQAYRAYQNYIKKNGEEKLLPGLDLNHKQLFFLNFAQVWCGTYRPEYAVNSIKTDVHSPKNFRIIGTLQNSAEFSEAFHCRKNSYMNPEKKCRVW
With B6, the activity relative to G399V/G714K (B1) in data set [1] was 2.37 fold; in data set [2] it was 0.08 fold; in data set [3], 2.24 fold; in data set [4], 0.35 fold; in data set [5] it was 0.89 fold; in data set [6] it was 0.68 fold.

The values above are taken from patent publication US20120237496.
